The values below come from US20050214212A1.

As a reminder, the Kd is the equilibrium constant for the complex coming apart. A higher Kd goes with a looser complex. As a reminder, the koff is the rate constant with which the complex falls apart. As usually defined, the kon is the rate constant with which the complex forms. A higher kon goes with fast association.

Numbering of substitutions follows the chain as printed. Where only a bound is given, the exact number is not on record here.

Assay [1] deals with glutathione-S-transferase fusion protein containing domains v3-v10 of human CD44 (human) (UniProt P16070). Kind of assay: ratio of affinities from SPR on GST/CD44v3-v10.
For assay [2] the target is unchanged. Kind of assay: SPR (BIAcore 2000), GST/CD44v3-v10 immobilised on CM5. (In general: SPR reads the build-up and loss of mass on a sensor chip optically.)
Assay [3] deals with CD44v6 (human CD44 variant isoform containing exon v6) on human tumour cells (human) (UniProt P16070). Kind of assay: immunoreactivity assay, 186Re-MAG3-labelled MAb on fixed UM-SCC-11B cells.
Assay [4] addresses glutathione-S-transferase fusion protein containing domains v3-v10 of human CD44 (human) (UniProt P16070). Kind of assay: SPR (BIAcore 2000), GST/CD44v3-v10 immobilised on CM5, MAb 8-67 nM injected.
Assay [5] addresses CD44v6 (human CD44 variant isoform containing exon v6) on human tumour cells (human) (UniProt P16070). Kind of assay: immunoreactivity assay, 131I-labelled MAb on glutaraldehyde-fixed UM-SCC-11B cells, experiment 2.
For assay [6] the target is unchanged. Kind of assay: immunoreactivity assay, 131I-labelled MAb on glutaraldehyde-fixed UM-SCC-11B cells, experiment 3.
For assay [7] the target is unchanged. Kind of assay: immunoreactivity assay of clinical 99mTc-/186Re-MAG3-labelled BIWA 4 batches on fixed UM-SCC-11B cells.
For assay [8] the target is unchanged. Kind of assay: immunoreactivity assay on fixed UM-SCC-11B cells, linear extrapolation to infinite antigen excess, experiment 2.
For assay [9] the target is unchanged. Kind of assay: immunoreactivity assay on fixed UM-SCC-11B cells, linear extrapolation to infinite antigen excess, experiment 3.
Assay [10] has the same target. Kind of assay: immunoreactivity assay, 125I-labelled MAb on glutaraldehyde-fixed UM-SCC-11B cells, experiment 3.

Sequence of glutathione-S-transferase fusion protein containing domains v3-v10 of human CD44 (human) (P16070 267-604): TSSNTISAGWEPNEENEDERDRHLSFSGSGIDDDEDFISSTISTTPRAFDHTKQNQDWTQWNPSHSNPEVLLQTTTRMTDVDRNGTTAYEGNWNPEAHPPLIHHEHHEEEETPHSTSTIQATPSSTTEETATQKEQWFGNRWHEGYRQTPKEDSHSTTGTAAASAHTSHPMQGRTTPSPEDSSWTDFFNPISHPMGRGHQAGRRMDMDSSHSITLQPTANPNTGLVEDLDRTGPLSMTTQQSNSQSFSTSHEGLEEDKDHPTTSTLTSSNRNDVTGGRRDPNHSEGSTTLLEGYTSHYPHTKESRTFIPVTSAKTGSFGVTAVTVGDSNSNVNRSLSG

B1: hMAb BIWA 4 (bivatuzumab), humanised CDR-grafted antibody without framework modifications (antibody, human IgG1, kappa, V domains shown)
VH: EVQLVESGGGLVKPGGSLRLSCAASGFTFSSYDMSWVRQAPGKGLEWVSTISSGGSYTYYLDSIKGRFTISRDNAKNSLYLQMNSLRAEDTAVYYCARQGLDYWGRGTLVTVSS
VL: EIVLTQSPATLSLSPGERATLSCSASSSINYIYWYQQKPGQAPRLLIYLTSNLASGVPARFSGSGSGTDFTLTISSLEPEDFAVYYCLQWSSNPLTFGGGTKVEIKR
Turning to B1, in assay [1], the fold lower affinity than cMAb BIWA 2 stood at 14 fold. In assay [1], the fold lower affinity than hMAb BIWA 8 came out at 4 fold. Besides, in assay [2], the Kd relative to murine BIWA 1 was determined as 10.5. The immunoreactive fraction in [3] is greater than 75%; in assay [7] it was greater than 80%. For the same molecule, in assay [4], the Kd came out at 3.4 nM. Further, the off-rate constant (koff) in assay [4] was 0.00022 s⁻¹. In assay [4], this molecule gave an association rate constant (kon) of 65000 M⁻¹ s⁻¹. Further, the Binding to 5 × 10^6 cells (%) turned out to be 77.4% in assay [5] and 77.3% in assay [6]. The Binding Extrapolated (%) (immunoreactive fraction) is 82.3% in assay [8] and 74.5% in [9].

B2: hMAb BIWA 8, humanised CDR-grafted antibody with framework modifications (antibody, human IgG1, kappa, V domains shown)
VH: B1 VH
VL: B1 VL with Y35L, L45I
Consider B2, for which the Kd relative to murine BIWA 1 in assay [2] amounted to 2.6. This molecule also gave an immunoreactive fraction in [3] greater than 75%. In addition, in [4], the Kd amounted to 0.84 nM, the koff came out at 6.3e-05 s⁻¹ and the kon came to 75000 M⁻¹ s⁻¹. The molecule further returned a Binding to 5 × 10^6 cells (%) in assay [10] of 91.8%. Moreover, the Binding Extrapolated (%) (immunoreactive fraction) in [9] is 92.1%.
